Experimental data published in patent US20150132305A1.
Residue numbers refer to the chain shown, from its start. Values belong to the binder of their own block, whether it stands above or below them. No end group written: not given here.

Experiments:
[1] = target: SDP051 humanized anti-Cad-11 EC1 antibody (Vκ1/VH5); test: flow cytometry blocking assay: peptide titrated with SDP 051 at 0.5 ug/ml on Cad-11 expressing 431D cells; blocked: binding of SDP051 to cell-surface Cad-11; MFI
[2] = target: T1, human Cadherin-11 on cells (Cad-11-expressing 431-D-11 cells; human fibroblast-like synoviocytes) (human) (UniProt P55287); test: cell-based or functional assay
T1 sequence: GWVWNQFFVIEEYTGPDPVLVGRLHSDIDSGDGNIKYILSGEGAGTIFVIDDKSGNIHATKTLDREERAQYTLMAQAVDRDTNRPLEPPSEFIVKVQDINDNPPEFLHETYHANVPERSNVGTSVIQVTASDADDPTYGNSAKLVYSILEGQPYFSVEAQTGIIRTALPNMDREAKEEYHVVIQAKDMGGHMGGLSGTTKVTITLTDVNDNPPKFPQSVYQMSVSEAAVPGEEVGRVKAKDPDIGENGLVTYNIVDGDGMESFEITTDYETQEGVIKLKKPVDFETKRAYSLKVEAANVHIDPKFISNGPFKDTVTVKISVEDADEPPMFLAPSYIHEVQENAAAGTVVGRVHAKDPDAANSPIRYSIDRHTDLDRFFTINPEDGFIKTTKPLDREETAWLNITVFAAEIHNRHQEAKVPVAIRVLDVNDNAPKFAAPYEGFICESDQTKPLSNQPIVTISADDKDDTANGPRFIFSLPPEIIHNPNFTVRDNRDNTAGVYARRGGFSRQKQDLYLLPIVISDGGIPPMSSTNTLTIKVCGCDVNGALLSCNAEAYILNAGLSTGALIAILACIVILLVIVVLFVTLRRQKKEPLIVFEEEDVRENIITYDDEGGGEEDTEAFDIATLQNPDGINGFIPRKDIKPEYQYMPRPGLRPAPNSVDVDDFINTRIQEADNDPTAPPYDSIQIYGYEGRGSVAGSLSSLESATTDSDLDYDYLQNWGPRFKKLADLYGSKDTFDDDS

[3] = target: T2, Cad-11 37-mer peptide linked to BSA (encompasses the Cad-11 immunogen) (human); test: ELISA, BSA-coupled 37-mer cadherin peptide coated at 500 ng/ml, A450
T2 sequence (peptide, linked to BSA): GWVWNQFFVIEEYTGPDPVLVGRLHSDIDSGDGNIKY

[4] = target: T2, Cad-11 37-mer peptide linked to BSA (encompasses the Cad-11 immunogen) (human); test: ELISA on peptide antigen, 50 ng/ml coat; Cad-11 antigen, 50 ng/ml coat
[5] = target: T2, Cad-11 37-mer peptide linked to BSA (encompasses the Cad-11 immunogen) (human); test: ELISA on peptide antigens, 50 ng/ml coat
[6] = target: T2, Cad-11 37-mer peptide linked to BSA (encompasses the Cad-11 immunogen) (human); test: ELISA on BSA-coupled 37-mer peptides, 500 ng/ml coat
[7] = target: T3, recombinant Cad-11 EC1 human IgG1 fusion protein (R&D Systems Cat. No. 1790-CA-050) (human) (UniProt P55287); test: competition ELISA on coated recombinant human Cad-11 EC1 fusion protein against biotinylated SYN0012 (0.1 µg/ml)
T3 sequence: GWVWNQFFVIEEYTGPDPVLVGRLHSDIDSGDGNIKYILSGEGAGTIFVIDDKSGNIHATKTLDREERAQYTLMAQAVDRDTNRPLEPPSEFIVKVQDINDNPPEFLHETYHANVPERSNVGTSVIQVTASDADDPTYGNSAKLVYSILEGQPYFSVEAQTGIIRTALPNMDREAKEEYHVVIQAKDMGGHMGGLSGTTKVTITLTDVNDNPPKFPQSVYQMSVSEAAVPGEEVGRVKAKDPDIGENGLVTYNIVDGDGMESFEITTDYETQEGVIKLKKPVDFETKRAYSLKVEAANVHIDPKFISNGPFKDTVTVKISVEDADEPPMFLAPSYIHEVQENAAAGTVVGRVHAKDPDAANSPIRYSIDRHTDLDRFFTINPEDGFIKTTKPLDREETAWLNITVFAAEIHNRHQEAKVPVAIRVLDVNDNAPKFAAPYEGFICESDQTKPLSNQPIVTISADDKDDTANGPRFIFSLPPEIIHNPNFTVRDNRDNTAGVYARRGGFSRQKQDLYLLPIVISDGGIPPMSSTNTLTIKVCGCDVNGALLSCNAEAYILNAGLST

[8] = target: Cad-11 EC1 domain peptide, first 33 amino acids (G1-G33), specificity ELISA of Example 5 (human); test: ELISA on biotin EC1 peptides
[9] = target: T4, Cad-8 EC1 domain peptide (region overlapping G1-G33 of the Cad-11 EC1 domain) (UniProt P55286); test: ELISA on biotin EC1 peptides
T4 sequence (peptide, conjugated to biotin, looked up): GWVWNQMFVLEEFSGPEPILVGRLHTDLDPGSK

Binder: GWVWNQFFVIEEYTGPDPVLVGRLHSDIDSGDGNIKY (also: linked to BSA) [Cad-11 37-mer peptide linked to BSA (encompasses the Cad-11 immunogen)]
IC50 (read off the curve) [1]: 200 ng/mL

B1: Cad-11-EC1-5-Fc fusion protein (5 extracellular domains of Cad-11 fused to the human IgG2 hinge, CH2 and CH3 domains) (Fc fusion, not shown: a dimerising Fc or GST)
chain: T3 sequence
Cad-11 mediated cell aggregation [2]: 100 µg/mL

B3: SDP081 humanized anti-Cad-11 EC1 antibody (Vκ2/VH3) (antibody, IgG4, V domains shown)
VH: EVQLVQSGAEVKKPGASVKISCKASGYSFTGYFMNWVRQAPGQGLEWIGRINPYTGDTFYNQKFKGRATLTVDKSTSTAYMELSSLRSEDTAVYYCGRLGSRYWYFDVWGQGTTVTVSS
VL: DVLMTQTPLSSPVTLGQPASISCRSSQSIIHSNGNTYLEWYLQKPGQSPQLLIYKVSNRFSGVPDRFSGSGSGTDFTLKISRVEAEDVGVYYCFQGSHVPWTFGQGTKLEIK
EC50 (read off the curve) [3]: 70 ng/mL

B7: SDP091 humanized anti-Cad-11 EC1 antibody (Vκ2/VH4) (antibody, IgG4, V domains shown)
VH: B3 VH with I20V, L70I
VL: B3 VL
EC50 (read off the curve) [3]: 70 ng/mL

B8: SDP051 humanized anti-Cad-11 EC1 antibody (Vκ1/VH5) (antibody, IgG4, V domains shown)
VH: B3 VH with I20V, A68V, L70I
VL: B3 VL with S68T
EC50 [4]: 6.8 ng/mL | binding differential, Cad-11 against Cad-8 [5]: > 200 fold | fold greater binding to the Cad-11 antigen than to the related antigens from the other cadherins [6]: > 100 fold | EC50 (read off the curve) [3]: 40 ng/mL

B9: SDP041 humanized anti-Cad-11 EC1 antibody (Vκ1/VH4) (antibody, IgG4, V domains shown)
VH: B3 VH with I20V, L70I
VL: B3 VL with S68T
EC50 (read off the curve) [3]: 60 ng/mL

B10: SDP071 humanized anti-Cad-11 EC1 antibody (Vκ2/VH2) (antibody, IgG4, V domains shown)
VH: B3 VH with R38K
VL: B3 VL
fold greater binding to the Cad-11 antigen than to the related antigens from the other cadherins [6]: > 20 fold

B11: SDP031 humanized anti-Cad-11 EC1 antibody (Vκ1/VH3) (antibody, IgG4, V domains shown)
VH: B3 VH
VL: B3 VL with S68T
fold greater binding to the Cad-11 antigen than to the related antigens from the other cadherins [6]: > 20 fold | EC50 (read off the curve) [3]: 60 ng/mL

B12: SDP021 humanized anti-Cad-11 EC1 antibody (Vκ1/VH2) (antibody, IgG4, V domains shown)
VH: B3 VH with R38K
VL: B3 VL with S68T
EC50 (read off the curve) [3]: 60 ng/mL

B14: H1M1 anti-Cad-11 EC1 domain antibody (hybridoma H1M1, ATCC PTA-9699) (antibody, V domains shown)
VH: EVQLQQSGPELVKPGASVKISCKASGYSFTGYFMNWVKQSHGKSLEWIGRINPYTGDTFYNQKFKGKATLTVDKSSSTAHMELLSLSSEDSAVYYCGRLGSRYWYFDVWGAGTTVTVSS
VL: DVLMTQTPLSLPVSLGDQASISCRSSQSIIHSNGNTYLEWYLQKPGQSPKLLIYKVSNRFSGVPDRFWTFGGGTKLEIKTGSGSGTDFTLKISRVEAEDLGVYYCFQGSHVPWTFGGGTKLEIK
inhibition of FLS invasion into MATRIGEL-coated membrane [2]: 80% | IC50 (read off the curve) [7]: 0.2 µg/mL | fold higher binding to Cad-11 than to any of the other cadherins tested [8]: > 100 fold | fold lower binding than to Cad-11 [9]: 1500 fold

B15: SDP061 humanized anti-Cad-11 EC1 antibody (Vκ2/VH1) (antibody, IgG4, V domains shown)
VH: B3 VH with A9P, V11L, R38K, P41H, T76S, S84V, R87S, T91S
VL: B3 VL
fold greater binding to the Cad-11 antigen than to the related antigens from the other cadherins [6]: > 20 fold | EC50 (read off the curve) [3]: 50 ng/mL

B17: SDP011 humanized anti-Cad-11 EC1 antibody (Vκ1/VH1) (antibody, IgG4, V domains shown)
VH: B3 VH with A9P, V11L, R38K, P41H, T76S, S84V, R87S, T91S
VL: B3 VL with S68T
EC50 (read off the curve) [3]: 70 ng/mL

Next, values leading:

Cad-11 mediated cell aggregation [2]: 3 µg/mL
B2: human Cad-11-EC1-hIgG2-Fc1 fusion protein (Fc fusion)
chain: FAPERRGHLRPSFHGHHEKGKEGQVLQRSKRGWVWNQFFVIEEYTGPDPVLVGRLHSDIDSGDGNIKYILSGEGAGTIFVIDDKSGNIHATKTLDREERAQYTLMAQAVDRDTNRPLEPPSEFIVKVQRSVECPPCPAPPVAGPSVFLFPPKPKDTLMISRTPEVTCVVVDVSHEDPEVQFNWYVDGMEVHNAKTKPREEQFNSTFRVVSVLTVVHQDWLNGKEYKCKVSNKGLPAPIEKTISKTKGQPREPQVYTLPPSREEMTKNQVSLTCLVKGFYPSDIAVEWESNGQPENNYKTTPPMLDSDGSFFLYSKLTVDKSRWQQGNVFSCSVMHEALHNHYTQKSLSLSPGKVPRLA

EC50 (read off the curve) [3]: 70 ng/mL
B4: SDP131 humanized anti-Cad-11 EC1 antibody (Vκ3/VH3) (antibody, IgG4, V domains shown)
VH: B3 VH
VL: B3 VL with L3V

EC50 (read off the curve) [3]: 60 ng/mL
B5: SDP141 humanized anti-Cad-11 EC1 antibody (Vκ3/VH4) (antibody, IgG4, V domains shown)
VH: B3 VH with I20V, L70I
VL: B3 VL with L3V

EC50 (read off the curve) [3]: 60 ng/mL
B6: SDP151 humanized anti-Cad-11 EC1 antibody (Vκ3/VH5) (antibody, IgG4, V domains shown)
VH: B3 VH with I20V, A68V, L70I
VL: B3 VL with L3V

EC50 (read off the curve) [3]: 50 ng/mL
B13: SDP121 humanized anti-Cad-11 EC1 antibody (Vκ3/VH2) (antibody, IgG4, V domains shown)
VH: B3 VH with R38K
VL: B3 VL with L3V

EC50 (read off the curve) [3]: 70 ng/mL
B16: SDP111 humanized anti-Cad-11 EC1 antibody (Vκ3/VH1) (antibody, IgG4, V domains shown)
VH: B3 VH with A9P, V11L, R38K, P41H, T76S, S84V, R87S, T91S
VL: B3 VL with L3V
